Columns and labels:
[1] = target: T1, mouse VEGFR-2/Fc chimeric receptor (mouse, UniProt P35918 20-762); test: competition plate binding assay: cold competitor against 125I-VEGF165 on immobilized VEGFR-2 (KDR)/Fc, scintillation counting
T1 construct: Bought from R&D Systems; also called KDR; KDR receptor

[2] = target: T2, rat Neuropilin-1/Fc chimeric receptor (rat, UniProt Q9QWJ9 22-854); test: competition plate binding assay, VEGF164 against 125I-VEGF165 on immobilized rat neuropilin-1/Fc, compared with HBD
[3] = target: T2, rat Neuropilin-1/Fc chimeric receptor; test: competition plate binding assay, cold competitor against 125I-VEGF165 on immobilized rat neuropilin-1/Fc, without heparin
[4] = target: T1, mouse VEGFR-2/Fc chimeric receptor; test: competitive binding of cold competitor against 125I-VEGF165 on immobilized mouse VEGFR-2/Fc, one-site competition fit [panel VEGFR-2]
[5] = target: T3, mouse VEGFR-1/Fc chimeric receptor (mouse, UniProt P35969 23-759); test: competition plate binding assay: cold competitor against 125I-VEGF165 on immobilized VEGFR-1 (Flt-1)/Fc, scintillation counting
T3 construct: Bought from R&D Systems; also called Flt-1; Flt-1 receptor

[6] = target: T3, mouse VEGFR-1/Fc chimeric receptor; test: competitive binding of cold competitor against 125I-VEGF165 on immobilized mouse VEGFR-1/Fc, one-site competition fit [panel VEGFR-1]
[7] = target: T2, rat Neuropilin-1/Fc chimeric receptor; test: competition plate binding assay: cold competitor against 125I-VEGF165 on immobilized Np-1/Fc, scintillation counting
[8] = target: T2, rat Neuropilin-1/Fc chimeric receptor; test: competition plate binding assay, HBD against 125I-VEGF165 on immobilized rat neuropilin-1/Fc

T2 sequence (Q9QWJ9 22-854, stated change not applied): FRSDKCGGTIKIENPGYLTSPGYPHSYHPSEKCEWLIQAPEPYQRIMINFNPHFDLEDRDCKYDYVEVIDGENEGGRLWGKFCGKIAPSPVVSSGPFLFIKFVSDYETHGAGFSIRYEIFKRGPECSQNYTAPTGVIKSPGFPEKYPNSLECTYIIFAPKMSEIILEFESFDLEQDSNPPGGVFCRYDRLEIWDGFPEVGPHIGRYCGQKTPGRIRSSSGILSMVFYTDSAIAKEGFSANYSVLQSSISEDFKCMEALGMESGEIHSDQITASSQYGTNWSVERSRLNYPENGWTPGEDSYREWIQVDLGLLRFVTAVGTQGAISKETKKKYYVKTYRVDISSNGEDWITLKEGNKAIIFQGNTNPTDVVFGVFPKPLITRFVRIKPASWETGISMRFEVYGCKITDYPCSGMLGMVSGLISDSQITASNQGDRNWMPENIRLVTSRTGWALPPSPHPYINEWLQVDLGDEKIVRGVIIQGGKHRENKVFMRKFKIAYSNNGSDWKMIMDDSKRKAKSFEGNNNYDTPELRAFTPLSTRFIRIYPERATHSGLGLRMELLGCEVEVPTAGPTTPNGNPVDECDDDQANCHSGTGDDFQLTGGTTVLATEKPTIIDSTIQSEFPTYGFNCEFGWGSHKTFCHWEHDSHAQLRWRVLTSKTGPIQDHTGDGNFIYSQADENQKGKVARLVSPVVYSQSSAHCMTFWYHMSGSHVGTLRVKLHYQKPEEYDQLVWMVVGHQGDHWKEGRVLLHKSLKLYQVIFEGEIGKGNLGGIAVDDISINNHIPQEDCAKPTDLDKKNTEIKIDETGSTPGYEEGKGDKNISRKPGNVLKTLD
T1 sequence (P35918 20-762, stated change not applied): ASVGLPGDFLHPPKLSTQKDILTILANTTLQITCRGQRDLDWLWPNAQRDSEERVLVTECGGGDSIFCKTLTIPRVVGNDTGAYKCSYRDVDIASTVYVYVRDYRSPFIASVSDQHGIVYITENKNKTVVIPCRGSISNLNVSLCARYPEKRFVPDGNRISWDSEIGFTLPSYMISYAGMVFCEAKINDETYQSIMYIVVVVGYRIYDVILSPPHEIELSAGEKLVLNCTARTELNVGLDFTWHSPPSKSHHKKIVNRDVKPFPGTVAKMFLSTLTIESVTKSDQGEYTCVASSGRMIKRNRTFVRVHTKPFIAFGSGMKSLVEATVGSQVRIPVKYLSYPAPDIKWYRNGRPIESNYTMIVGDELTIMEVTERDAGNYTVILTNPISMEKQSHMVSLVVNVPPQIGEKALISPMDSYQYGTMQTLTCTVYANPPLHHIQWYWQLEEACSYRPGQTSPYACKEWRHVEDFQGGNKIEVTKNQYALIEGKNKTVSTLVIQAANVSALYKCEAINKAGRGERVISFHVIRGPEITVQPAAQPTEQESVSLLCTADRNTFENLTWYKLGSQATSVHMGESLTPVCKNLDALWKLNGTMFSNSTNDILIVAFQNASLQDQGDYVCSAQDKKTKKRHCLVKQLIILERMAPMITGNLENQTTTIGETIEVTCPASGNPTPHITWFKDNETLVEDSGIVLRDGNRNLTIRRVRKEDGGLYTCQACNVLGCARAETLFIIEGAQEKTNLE
T3 sequence (P35969 23-759, stated change not applied): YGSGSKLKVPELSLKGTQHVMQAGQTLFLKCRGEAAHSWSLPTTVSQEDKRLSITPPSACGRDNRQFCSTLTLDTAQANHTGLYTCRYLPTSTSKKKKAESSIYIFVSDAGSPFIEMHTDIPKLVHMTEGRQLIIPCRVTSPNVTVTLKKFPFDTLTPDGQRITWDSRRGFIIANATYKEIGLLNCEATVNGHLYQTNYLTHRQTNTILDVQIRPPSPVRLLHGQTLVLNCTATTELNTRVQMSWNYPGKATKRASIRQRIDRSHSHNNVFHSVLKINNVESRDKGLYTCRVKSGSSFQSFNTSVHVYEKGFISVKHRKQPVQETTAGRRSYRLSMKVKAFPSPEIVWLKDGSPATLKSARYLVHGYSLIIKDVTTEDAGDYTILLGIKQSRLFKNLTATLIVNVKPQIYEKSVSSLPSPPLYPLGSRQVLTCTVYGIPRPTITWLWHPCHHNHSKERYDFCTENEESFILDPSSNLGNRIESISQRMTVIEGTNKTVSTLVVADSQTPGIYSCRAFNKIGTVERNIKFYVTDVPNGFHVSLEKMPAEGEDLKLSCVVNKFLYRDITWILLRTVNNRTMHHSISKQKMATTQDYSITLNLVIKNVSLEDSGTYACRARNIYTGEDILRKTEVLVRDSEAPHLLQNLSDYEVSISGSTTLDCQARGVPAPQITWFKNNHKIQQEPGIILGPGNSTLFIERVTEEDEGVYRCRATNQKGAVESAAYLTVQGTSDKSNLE

Binder	IC50 (read off the curve) [1]	IC50 (read off the curve) [5]	IC50 (read off the curve) [7]	further results
VEGF164 (wild type) (ligand) APTTEGEQKSHEVIKFMDVYQRSYCRPIETLVDIFQEYPDEIEYIFKPSCVPLMRCAGCCNDEALECVPTSESNITMQIMRIKPHQSQHIGEMSFLQHSRCECRPKKDRTKPENHCEPCSERRKHLFVQDPQTCKCSCKNTDSRCKARQLELNERTCRCDKPRR	~0.08 nM	~0.02 nM	–	fold stronger competitive binding than HBD [2]: ~230 fold; IC50 [3]: 0.128 nM; IC50 (read off the curve) [4]: ~0.2 nM; IC50 (read off the curve) [6]: ~0.04 nM
VEGF120 (ligand) APTTEGEQKSHEVIKFMDVYQRSYCRPIETLVDIFQEYPDEIEYIFKPSCVPLMRCAGCCNDEALECVPTSESNITMQIMRIKPHQSQHIGEMSFLQHSRCECRPKKDRTKPEKCDKPRR	~0.08 nM	~0.09 nM	–	–
VEGF164 mutant K26A (ligand, mouse, UniProt Q00731-2 27-190, looked up, mature) APTTEGEQKSHEVIKFMDVYQRSYCRPIETLVDIFQEYPDEIEYIFKPSCVPLMRCAGCCNDEALECVPTSESNITMQIMRIKPHQSQHIGEMSFLQHSRCECRPKKDRTKPENHCEPCSERRKHLFVQDPQTCACSCKNTDSRCKARQLELNERTCRCDKPRR	–	–	~0.4 nM	fold reduction of binding affinity compared to VEGF164 [3]: 2.5 fold
VEGF164 double mutant R14A/R49A (ligand, ID No. 23; also called R14/R49A; mutant R14/R49A) APMAEGGGQNHHEVVKFMDVYQRSYCHPIETLVDIFQEYPDEIEYIFKPSCVPLMRCGGCCNDEGLECVPTEESNITMQIMRIKPHQGQHIGEMSFLQHNKCECRPKKDRARQENPCGPCSERAKHLFVQDPQTCKCSCKNTDSRCKARQLELNERTCACDKPRR	–	–	~5 nM	–
recombinant heparin-binding domain of VEGF164 (HBD) (also called soluble HBD; VEGF55) ARQENPCGPCSERRKHLFVQDPQTCKCSCKNTDSRCKARQLELNERTCRCDKPRR	–	–	–	IC50 [8]: 28.6 nM
